# From paper PMC8639797
# Molecular target: ALK ECR^ABR variants with single substitutions in the TNF-like or EGF-like domains (BLI, Fig. 2d)
# Test: BLI
binder,measurement,value
ALKAL2-AD (residues 77–152) (domain or fragment) GPSPEQRVEIVPRDLRMKDKFLKHLTGPLYFSPKCSKHFHRLYHNTRDCTIPAYYKRCARLLTRLAVSPVCMEDKQ,fold reduction of affinity against wild type,2 to 3 fold
